# Data published in the domain aggregation screens of Martell et al. (2025).
# Assay: soluble fraction after stress (log2 fold change); higher = more stays soluble; pooled small domains, quantitative proteomics
# Settings: stress: pH 4
# In short: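 Custom libraries of small protein domains were pooled and exposed to pH 4. High-throughput quantitative proteomics then measured the log2 fold change in the amount of each domain still soluble, with higher values meaning more stayed soluble. This soluble-fraction fold change stands for aggregation propensity.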
row,Sequence,soluble fraction (log2)
1,HMERYFVLVIYDIVDNKKRLKLSKYLLGYGIRVQKSAFEMMITKEKYNKLIKELPTYIEEGEDSIRLY,-0.292
2,HMPGSGELSRRLELAIRDRTAVRVTAAAAGQERSFTLLPVAITSGRLRATDEQAGVQRTLPLSAIVAVEA,-0.135
3,HMGKDIYLTSGWVEKFDELNEFSNSVDNYDRLNQFGMYENAIIGDTGVIKITDEMIFDLYEKIQVPVEAGP,-1.04
4,HMKAGEDAVQKAVLEAVAESAAAVADYKAGSERALNFIVGKVMKKTRGKASAAEVHRLVREEVDR,0.079
5,HMEPEVEITYFKPDERKAGGAYVTVTGAVIKVDDFERLITMQDGTKIPMDDILSIDGELFLS,-1.08
6,HMNNNIFVYPNPSINYINIDSDEEIWKLEIIQMSGEKINILPFSKRIDISFLSKGLYILNFNNYYIKFIK,-0.937
7,HMAANKIDEDRNTELLQVIQNKFPDADAATKKSVKEIMKEHDIPNFKNADDIPTAVLEQIVKVLNQ,-0.128
8,HMNVRAYKVSKESELTVEEKLEAVRGYGVADLLYVIREFEENPGKYEPEVIKLIVQQLTDKGIM,-0.94
9,HMNQLSYTERRVLQVIEGGTTKTGEIEQALAAKMSRPTVHRALDALVGANRIHRLARGEYALGPAP,0.321
10,HMIEQEQAFLEQVLKKYSQEELVLTVGSRTLVKYSAGQLERLLEHYPHVRLASSPVNGEAGFLLSRG,-0.784
11,HMERPKSLRELALEHLRNSIIDGSLKMGQVLSERKISEELGVSKSPVREALAQLRDEGLVSIEPQKGARV,0.288
12,HMDNPYEVFIPNSYIGQRLDQTLASLFPQFSRSRLQNWLASGNLLVNGKIVKPKTKILGGEQINILDPYN,0.17
13,HMNENYNLSKREKEVLDLLVNGKSYKVIATELAISYETVHSHIKKIYHKLHVSSIGEAVSKTIKQKIL,-0.561
14,HMGTYTSALDGIKGLGKKRKMLLLNTYKSIDVLKSVPLTELSQLIPREVAEALLTKLNRVDD,0.116
15,HMAPDNDELEKAKKIVNAFIEAKAKGLGVVSLGTKMIDAPVVKRAQKIIDQTIVMGKLSLNWQDEFFN,-0.32
16,HMNEMEWVAKLIDQLPERERMILQLREIEQYEFDQIASLMEIPEGTVRVYLSRIRKKIKKQFIEIQSH,-0.405
17,HMFSQDQIFLRSGEKIDARVIEVTPEFIKYKSKANPEGPLYSKKITDVLLITYANGTTEVYE,-0.749
18,HMAMTNEEREALISEIKQTVNNSIDLKKDISDTEIKEAITQAVFERSEKSYLSIAEKQDIITAVFNSMR,-0.159
19,HMDPHEEELLRQLIRGDIAGYEVLFHKYYPTFFAFIKGMTKETVVAEDITQNIFMKVWLNRERLDAA,-0.535
20,HMPNGEAYQRFTYENDILEGRFEEWDSLGTDIVKGDYTAGVRHKKWLYYDSEGRRDKFVFLDMDSI,-0.345
21,HMEQEVLDLLFDAIRSLPEKYRRLFDMSFEQGLKNAEIAALLHVSESAVKKQKASMIQQLRDDLLRKTGKD,-0.564
22,HMDFSSRLKDERKRLKLSQAQLGEAGGVSKDAQLNYENGSRSPSASYLELIAREGVDVQFLLTGKRS,-0.0636
23,HMNIDEIIGKKAVVIESIDNLQGTGKVRYQGMEWTARAEEENDRIEKDAEVEIIAVKGVKLIVKMK,-0.19
24,HMHEGNWTLPNPMPIGTTLTLPEHSRLYISNLAGQRVFETSATSVEIPLLPKGTYLLRLETMNGHTTRKIL,0.00873
25,HMENEDMTGDIRVIDYIRNVAEYIQTTKGQASASQMLDRFLFPPELQYTPLDKLSGGEQRRLYLLKVLMEA,-0.575
26,HMPPAIKTLMFMIQNKSLLKSPKQLAVVQQQLKKIKGVRDVLILLEEGKVMLKVNKHETIHEASIIRLLGG,0.00198
27,HMHGEAVVVPNVKGLPMRQAENEIYKQSLKAVAIDSSYVKGMPPGAILEQNPAGGSKVKKGRTVYLTINMD,0.0278
28,HMEFQEQLYRLRKQAGLSQEELSHIIGVSRQAVQKWEAGSARPDLDNLIALASHFKLSLDQLVGLT,-0.125

row,Sequence,soluble fraction (log2)
1,HMGNIIITPNPASDFIKIISNSPIIKFGFYDIYGNTINKKFNDNSINISDLPVGMYLINLNERYFKLLK,0.021
2,HMTEISGIEKFLASGAINGIGPAMAKKIVAEFGEKTLEIIAKSPNELLKVPGIGKKTAEKISTSYLEQ,0.0637
3,HMDRETEEYELIRAKLEWLYQKQTGTIRNQTAKILHHLEIAKEEGNYYLYLKIKEEAKQWLVQASMYLD,-0.725
4,HMIPKDKQAWIALTYIYGVGRTTSMEILKKAQVGEEIRMKDLTEEEVTRIRNIIDKEYEVEGDLRRN,-0.762
5,HMEFQSIGGKIRIGREREHLTQAELAQKLSVTRQAVSNWERDKTLPDIYMIREIAEIFGLTLDEFMEGAKK,0.0806
6,HMAQVSDTGAIAKIVADAIAANPKQVQQYLDGNEKVLMYLVGQVMKLSKGKANPPMVIQLLKEQLG,-0.0882
7,HMTPQVALNDTETAIYEKMKQEKQMLLGELRAQFDISNKLWDTSLKTLTKNQLLAVSKEDDLLFVKL,-0.437
8,HMGDLKALMPGKVTQVLVSGGQKVKVGEPVLLMESMKMEQTIVATKDGDISEILVSEGDTVEVGKIMIKI,0.0925
9,HMGGVSTDKPLNWDADGTSKLTQEQIDYLRSTYDLSDMSKQDYYDLMADLTNMNAISIKDVISQYVK,-0.462
10,HMASRSQTEIMHLLSSGLPKHELVTALQSLLGISKPTAYKYLSQDVSIAYDHMVKILEYPPFQRVLYQ,-0.799
11,HMEQKISVPALVGRDIEEILADTEVTGNFTIKEADKRVASNRPVGEVLEQDPGTGESAVKGTIITVTVSAG,-0.353
12,HMSNQLAVPDVTNMKANAAADRLRQQGLRVELKTESSNTVPRGMAIRTDPAASTMVARGGRVTLIISSGKG,-0.0724
13,HMKEEVMVPNVVGKELSAALLEMQVKELYPKLQLKYSNFVDDKGTVLEQSPPAGSIVKAGRRINLVVSRGA,0.0708
14,HMSGYFSDKKLNELFEQYLIMREKKGKPVVGYQLKILIDRLNQVAANTKEKIEVVSNAIAGDWNTFYPIKR,0.0685
15,HMRTLKDSTEYLIRSMLLRGEMKVGEIYSANALAKELNISNSPVREAMMSLVDRGLLENVRNRGFRVV,-0.115
16,HMPAVVEFDVKPRGEVLVDGIWYGRIPELREVELRPGRHHLRVQNAGHPSLDLVVTLEPGERMTVTHTFA,-0.33
17,HMAAYRLIPLGNSNKDFETYQEAIQYMRDKLDESSKAFEEGKQNWVYSGRVYGVPWSDGRTTFTVDLVPKV,0.0755
18,HMGNRWENLISNKMIDDVDEELLRKYIAQAHDAGRIAISYTDRKTVLNQLELTDGDRLLNAGKVLFSD,-0.657
19,HMDRNEFVSTLRAALTGAVSPAIVEDNVRYYQNYISQEIASGKSEKEVLDGLGDPRLIARTIIDT,0.14
20,HMDFSYTVGDIDEPIDSRGNSVIMLRKLAWGSNAEKLEIRRWIIDIDSERANKGVTFLTEEGPHNLVRV,-0.332
21,HMDEKSGWLHLAPHEGALRAALYAEHAVQEERTAPDGSQWLRLVLREKHYHQIQSKYNRRLTLHTQPDPS,≥ 0.43
22,HMTEWSIHEVAQRSGVTTRTLRHYDAIGILSPTRTGANGYRYYGPEALVRLQRILLLRDLGLALSDIAE,-1.66
23,HMVLNVMIEEEVHREIIAAISKLPKERRRVVELSMAGFSQEEIAEKMAISVNTVKTIKLRAYRVLRERLKG,-0.208
24,HMTTTPAERQRTILRSLNRVDPVSVDALARLTGVSVVTIRRDLSDLASRDLIRRVHGGALLPTR,0.339
25,HMAEPIAAGKYTVSTSGSVLNMRVSPDADSQVLEKIPNGTIVEVTKSVLGWAYVTYNSAQGWVSSAYLV,-0.463
26,HMARKISVEALGKYFPNSPMLAAAVAVTGVMKKDEFIHEMRASYKHKFAKKPEVIDGNMKALTMTFEA,-0.122
27,HMNRIARRELMEQLFADNKITTQEQLQQLLRAEGVEVTQATISRDMRILNIVKVSDQNGNTYYKQMK,0.0823
